Patent publication US20220064329A1 (Novo Nordisk, published 2022)

T1: recombinant human activated Factor VII (FVIIa) (human, UniProt P08709 61-212; P08709 213-466, ten glutamate residues of the Gla domain may be gamma-carboxylated)
T1 construct: chains tethered by a disulfide bond; also called Factor VIIa; rFVIIa
T1 sequence 1: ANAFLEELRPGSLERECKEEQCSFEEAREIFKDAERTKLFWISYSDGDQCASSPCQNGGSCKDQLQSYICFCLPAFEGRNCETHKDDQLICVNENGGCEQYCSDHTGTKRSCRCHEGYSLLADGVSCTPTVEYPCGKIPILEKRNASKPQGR
T1 sequence 2: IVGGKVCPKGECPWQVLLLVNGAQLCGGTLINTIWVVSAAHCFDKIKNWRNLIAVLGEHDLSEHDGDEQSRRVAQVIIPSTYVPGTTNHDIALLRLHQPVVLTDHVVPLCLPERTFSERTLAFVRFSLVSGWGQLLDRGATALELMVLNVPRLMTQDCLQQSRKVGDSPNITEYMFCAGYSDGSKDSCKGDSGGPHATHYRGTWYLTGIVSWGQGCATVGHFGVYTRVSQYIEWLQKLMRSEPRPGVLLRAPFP


The binders below were run against T1, recombinant human activated Factor VII … (assay: BLI (Fortebio)).

Binder	Kd
VH SEQ ID NO 642 / VL SEQ ID NO 478 (antibody, IgG4, V domains shown, humanized 11F2; IgG4 S228P/kappa) VH: QVQLQESGPGLVKPSQTLSLTCTVSGYSISSDSAWSWIRQPPGKGLEWIGYIYYSGSTNYNPSLKSRVTISVDTSKNQFSLKLSSVTAADTAVYYCARSVNYYGNSFAVGYWGQGTSVTVSS VL: EIVLTQSPATLSLSPGERATLSCRASQGVSDYLHWYQQKPGQAPRLLIKYASQPATGIPARFSGSGSGTDFTLTISSLEPEDFAVYYCQQGHSFPLTFGQGTKLEIK	11 nM
VH SEQ ID NO 642 / VL SEQ ID NO 494 (antibody, IgG4, V domains shown, humanized 11F2; IgG4 S228P/kappa) VH: QVQLQESGPGLVKPSQTLSLTCTVSGYSISSDSAWSWIRQPPGKGLEWIGYIYYSGSTNYNPSLKSRVTISVDTSKNQFSLKLSSVTAADTAVYYCARSVNYYGNSFAVGYWGQGTSVTVSS VL: EIVLTQSPATLSLSPGERATLSCRASQGVSDYLHWYQQKPGQAPRLLIKYASQPATGIPARFSGSGSGTDFTLTISSLEPEDVAVYYCQNGHSFPLTFGQGTKLEIK	10 nM
VH SEQ ID NO 642 / VL SEQ ID NO 486 (antibody, IgG4, V domains shown, humanized 11F2; IgG4 S228P/kappa) VH: QVQLQESGPGLVKPSQTLSLTCTVSGYSISSDSAWSWIRQPPGKGLEWIGYIYYSGSTNYNPSLKSRVTISVDTSKNQFSLKLSSVTAADTAVYYCARSVNYYGNSFAVGYWGQGTSVTVSS VL: EIVLTQSPATLSLSPGERATLSCRASQGVSDYLHWYQQKPGQAPRLLIKYASQPATGIPARFSGSGSGTDFTLTISSLEPEDFGVYYCQNGHSFPLTFGQGTKLEIK	7.7 nM
VH SEQ ID NO 650 / VL SEQ ID NO 366 (antibody, IgG4, V domains shown, humanized 11F2; IgG4 S228P/kappa) VH: QVQLQESGPGLVKPSQTLSLTCTVSGYSISSDSAWSWIRQPPGKKLEWIGYIQYSGSTNYNPSLKSRVTISRDTSKNQFSLKLSSVTAADTAVYYCARSVNYYGNSFAVGPWGQGTLVTVSS VL: EIVLTQSPATLSLSPGERATLSCRASQGLSDYLAWYQQKPGEAPRLLIKYASQPATGIPARFSGSGSGTDFTLTISSLEPEDFAVYYCQNGHSFPLTFGQGTKLEIK	35 nM
VH SEQ ID NO 650 / VL SEQ ID NO 326 (antibody, IgG4, V domains shown, humanized 11F2; IgG4 S228P/kappa) VH: QVQLQESGPGLVKPSQTLSLTCTVSGYSISSDSAWSWIRQPPGKKLEWIGYIQYSGSTNYNPSLKSRVTISRDTSKNQFSLKLSSVTAADTAVYYCARSVNYYGNSFAVGPWGQGTLVTVSS VL: EIVLTQSPATLSLSPGERATLSCRASQGISDYLHWYQQKPGEAPRLLIKYTSQPATGIPARFSGSGSGTDFTLTISSLEPEDFGVYYCQNGHSFPLTFGAGTKLELK	1.1 nM
VH SEQ ID NO 650 / VL SEQ ID NO 398 (antibody, IgG4, V domains shown, humanized 11F2; IgG4 S228P/kappa) VH: QVQLQESGPGLVKPSQTLSLTCTVSGYSISSDSAWSWIRQPPGKKLEWIGYIQYSGSTNYNPSLKSRVTISRDTSKNQFSLKLSSVTAADTAVYYCARSVNYYGNSFAVGPWGQGTLVTVSS VL: EIVLTQSPATLSLSPGERATLSCRASQGVSDYLAWYQQKPGEAPRLLIKYTSQPATGIPARFSGSGSGTDFTLTISSLEPEDFAVYYCQNGHSFPLTFGQGTKLEIK	55 nM
VH SEQ ID NO 650 / VL SEQ ID NO 342 (antibody, IgG4, V domains shown, humanized 11F2; IgG4 S228P/kappa) VH: QVQLQESGPGLVKPSQTLSLTCTVSGYSISSDSAWSWIRQPPGKKLEWIGYIQYSGSTNYNPSLKSRVTISRDTSKNQFSLKLSSVTAADTAVYYCARSVNYYGNSFAVGPWGQGTLVTVSS VL: EIVLTQSPATLSLSPGERATLSCRASQGISDYLHWYQQKPGQAPRLLIKYTSQPATGIPARFSGSGSGRDFTLTISSLEPEDFAVYYCQNGHSFPLTFGAGTKLELK	1.6 nM
VH SEQ ID NO 650 / VL SEQ ID NO 310 (antibody, IgG4, V domains shown, humanized 11F2; IgG4 S228P/kappa) VH: QVQLQESGPGLVKPSQTLSLTCTVSGYSISSDSAWSWIRQPPGKKLEWIGYIQYSGSTNYNPSLKSRVTISRDTSKNQFSLKLSSVTAADTAVYYCARSVNYYGNSFAVGPWGQGTLVTVSS VL: EIVLTQSPATLSLSPGERATLSCRASQGISDYLAWYQQKPGQAPRLLIKYASQPATGIPARFSGSGSGTDFTLTISSLEPEDFAVYYCQNGHSFPLTFGQGTKLEIK	16 nM
VH SEQ ID NO 650 / VL SEQ ID NO 350 (antibody, IgG4, V domains shown, humanized 11F2; IgG4 S228P/kappa) VH: QVQLQESGPGLVKPSQTLSLTCTVSGYSISSDSAWSWIRQPPGKKLEWIGYIQYSGSTNYNPSLKSRVTISRDTSKNQFSLKLSSVTAADTAVYYCARSVNYYGNSFAVGPWGQGTLVTVSS VL: EIVLTQSPATLSLSPGERATLSCRASQGISDYLHWYQQKPGQAPRLLIKYTSQPATGIPARFSGSGSGTDFTLTISSLEPEDFAVYYCQNGHSFPLTFGAGTKLELK	0.99 nM
VH SEQ ID NO 650 / VL SEQ ID NO 318 (antibody, IgG4, V domains shown, humanized 11F2; IgG4 S228P/kappa) VH: QVQLQESGPGLVKPSQTLSLTCTVSGYSISSDSAWSWIRQPPGKKLEWIGYIQYSGSTNYNPSLKSRVTISRDTSKNQFSLKLSSVTAADTAVYYCARSVNYYGNSFAVGPWGQGTLVTVSS VL: EIVLTQSPATLSLSPGERATLSCRASQGISDYLHWYQQKPGEAPRLLIKYTSQPATGIPARFSGSGSGTDFTLTISSLEPEDFAVYYCQNGHSFPLTFGQGTKLEIK	1.2 nM
VH SEQ ID NO 650 / VL SEQ ID NO 406 (antibody, IgG4, V domains shown, humanized 11F2; IgG4 S228P/kappa) VH: QVQLQESGPGLVKPSQTLSLTCTVSGYSISSDSAWSWIRQPPGKKLEWIGYIQYSGSTNYNPSLKSRVTISRDTSKNQFSLKLSSVTAADTAVYYCARSVNYYGNSFAVGPWGQGTLVTVSS VL: EIVLTQSPATLSLSPGERATLSCRASQGVSDYLAWYQQKPGQAPRLLIKYASQPATGIPARFSGSGSGTDFTLTISSLEPEDFAVYYCQNGHSFPLTFGAGTKLEIK	180 nM
VH SEQ ID NO 650 / VL SEQ ID NO 358 (antibody, IgG4, V domains shown, humanized 11F2; IgG4 S228P/kappa) VH: QVQLQESGPGLVKPSQTLSLTCTVSGYSISSDSAWSWIRQPPGKKLEWIGYIQYSGSTNYNPSLKSRVTISRDTSKNQFSLKLSSVTAADTAVYYCARSVNYYGNSFAVGPWGQGTLVTVSS VL: EIVLTQSPATLSLSPGERATLSCRASQGISDYLHWYQQKPGQAPRLLIKYTSQPATGIPARFSGSGSGTDFTLTISSLEPEDFAVYYCQNGHSFPLTFGQGTKLEIK	1.1 nM
VH SEQ ID NO 650 / VL SEQ ID NO 422 (antibody, IgG4, V domains shown, humanized 11F2; IgG4 S228P/kappa) VH: QVQLQESGPGLVKPSQTLSLTCTVSGYSISSDSAWSWIRQPPGKKLEWIGYIQYSGSTNYNPSLKSRVTISRDTSKNQFSLKLSSVTAADTAVYYCARSVNYYGNSFAVGPWGQGTLVTVSS VL: EIVLTQSPATLSLSPGERATLSCRASQGVSDYLAWYQQKPGQAPRLLIKYASQPATGIPARFSGSGSGTDFTLTISSLEPEDFAVYYCQQGHSFPLTFGQGTKLEIK	2600 nM
VH SEQ ID NO 650 / VL SEQ ID NO 414 (antibody, IgG4, V domains shown, humanized 11F2; IgG4 S228P/kappa) VH: QVQLQESGPGLVKPSQTLSLTCTVSGYSISSDSAWSWIRQPPGKKLEWIGYIQYSGSTNYNPSLKSRVTISRDTSKNQFSLKLSSVTAADTAVYYCARSVNYYGNSFAVGPWGQGTLVTVSS VL: EIVLTQSPATLSLSPGERATLSCRASQGVSDYLAWYQQKPGQAPRLLIKYASQPATGIPARFSGSGSGTDFTLTISSLEPEDFAVYYCQNGHSFPLTFGQGTKLEIK	84 nM
VH SEQ ID NO 650 / VL SEQ ID NO 382 (antibody, IgG4, V domains shown, humanized 11F2; IgG4 S228P/kappa) VH: QVQLQESGPGLVKPSQTLSLTCTVSGYSISSDSAWSWIRQPPGKKLEWIGYIQYSGSTNYNPSLKSRVTISRDTSKNQFSLKLSSVTAADTAVYYCARSVNYYGNSFAVGPWGQGTLVTVSS VL: EIVLTQSPATLSLSPGERATLSCRASQGLSDYLHWYQQKPGEAPRLLIKYASQPATGIPARFSGSGSGTDFTLTISSLEPEDFAVYYCQNGHSFPLTFGQGTKLEIK	1.9 nM
VH SEQ ID NO 650 / VL SEQ ID NO 374 (antibody, IgG4, V domains shown, humanized 11F2; IgG4 S228P/kappa) VH: QVQLQESGPGLVKPSQTLSLTCTVSGYSISSDSAWSWIRQPPGKKLEWIGYIQYSGSTNYNPSLKSRVTISRDTSKNQFSLKLSSVTAADTAVYYCARSVNYYGNSFAVGPWGQGTLVTVSS VL: EIVLTQSPATLSLSPGERATLSCRASQGLSDYLAWYQQKPGQAPRLLIKYTSQPATGIPARFSGSGSGTDFTLTISSLEPEDFAVYYCQNGHSFPLTFGQGTKLEIK	46 nM
VH SEQ ID NO 642 / VL SEQ ID NO 502 (antibody, IgG4, V domains shown, humanized 11F2; IgG4 S228P/kappa) VH: QVQLQESGPGLVKPSQTLSLTCTVSGYSISSDSAWSWIRQPPGKGLEWIGYIYYSGSTNYNPSLKSRVTISVDTSKNQFSLKLSSVTAADTAVYYCARSVNYYGNSFAVGYWGQGTSVTVSS VL: EIVLTQSPATLSLSPGERATLSCRASQGVSDYLHWYQQKPGQAPRLLIKYTSQPATGIPARFSGSGSGTDFTLTISSLEPEDFAVYYCQNGHSFPLTFGQGTKLEIK	4.6 nM
VH SEQ ID NO 650 / VL SEQ ID NO 430 (antibody, IgG4, V domains shown, humanized 11F2; IgG4 S228P/kappa) VH: QVQLQESGPGLVKPSQTLSLTCTVSGYSISSDSAWSWIRQPPGKKLEWIGYIQYSGSTNYNPSLKSRVTISRDTSKNQFSLKLSSVTAADTAVYYCARSVNYYGNSFAVGPWGQGTLVTVSS VL: EIVLTQSPATLSLSPGERATLSCRASQGVSDYLAWYQQKPGQAPRLLIKYASQPATGIPARFSGSGSGTDFTLTISSLEPEDFGVYYCQNGHSFPLTFGQGTKLEIK	28 nM
VH SEQ ID NO 650 / VL SEQ ID NO 390 (antibody, IgG4, V domains shown, humanized 11F2; IgG4 S228P/kappa) VH: QVQLQESGPGLVKPSQTLSLTCTVSGYSISSDSAWSWIRQPPGKKLEWIGYIQYSGSTNYNPSLKSRVTISRDTSKNQFSLKLSSVTAADTAVYYCARSVNYYGNSFAVGPWGQGTLVTVSS VL: EIVLTQSPATLSLSPGERATLSCRASQGVSDYLAWYQQKPGEAPRLLIKYASQPATGIPARFSGSGSGTDFTLTISSLEPEDFAVYYCQNGHSFPLTFGQGTKLEIK	99 nM
VH SEQ ID NO 650 / VL SEQ ID NO 334 (antibody, IgG4, V domains shown, humanized 11F2; IgG4 S228P/kappa) VH: QVQLQESGPGLVKPSQTLSLTCTVSGYSISSDSAWSWIRQPPGKKLEWIGYIQYSGSTNYNPSLKSRVTISRDTSKNQFSLKLSSVTAADTAVYYCARSVNYYGNSFAVGPWGQGTLVTVSS VL: EIVLTQSPATLSLSPGERATLSCRASQGISDYLHWYQQKPGQAPRLLIKYASQPATGIPARFSGSGSGTDFTLTISSLEPEDFAVYYCQNGHSFPLTFGQGTKLEIK	1.5 nM
